Source: patent US20030180295A1, “Angiocidin: a Cys-Ser-Val-Thr-Cys-Gly specific tumor cell adhesion receptor” (Philadelphia Health and Education Corporation, priority 1999, published 2003)

Columns and labels:
TSP-1 = TSP-1 (Homo sapiens, UniProt P07996); assay: Optical binding of angiocidin fragments to TSP-1 derivatized cuvette; details: test proteins at 10 nm in PBS buffer
Procedure: This study examines the amino terminal (Met1-Lys132) and carboxy terminal (IIe248-Lys380) portions of angiocidin (SEQ ID NOS: 24 and 25, respectively). The binding of undenatured recombinant angiocidin fragments was compared to full length angiocidin. GST was used as a negative control. Binding was evaluated using an optical binding method that uses a cuvette to which TSP-1 is covalently coupled. A laser beam was used to detect whether the test protein (fragments, angiocidin, or GST) is bound to the TSP-1 derivatized cuvette surface. The cuvette was derivatized with 1 μg of TSP-1. The cuvette surfaces were blocked with a 1% BSA solution to prevent nonspecific binding. The test proteins were added at a concentration of […] in a PBS buffer.

[1] = system: Bovine aortic endothelial cells (BAEC); assay: ALAMAR BLUE cell viability assay; assay type: cell-based
Procedure: Bovine aortic endothelial cells (BAEC), human umbilical vein endothelial cells (HUVEC), fibroblast cells, A549 human lung carcinoma cells (A549), MDA-MB231 human breast carcinoma cells (MB231), MCF7 human breast carcinoma cells (MCF7) were treated with 37 μg/ml of receptor, or buffer alone, for 24 hours. Viability of the cells was measured using the ALAMAR BLUE™ assay, which measures the capacity of cells to metabolize the ALAMAR BLUE™ dye. The ALAMAR BLUE™ assay (available from Biosource International, Camarillo, Calif.) quantitatively measures the proliferation of cell lines and can establish the relative cytotoxicity of chemical agents. […] Data can be collected using either fluorescence-based instrumentation (530-560 nm excitation wavelength and 590 nm emission wavelength) or absorbance-based instrumentation (570 nm and 600 nm).
BAEC and BSM cells were treated with increasing concentrations of angiocidin (0, 0.625, 1.25, 2.5, 5, 15, 26 and 37 μg/ml) for 24 hours. Cell viability was measured using the ALAMAR BLUE Tm assay. […]
Bovine aortic endothelial cells (BAEC) were cultured overnight in serum-free media containing either 37 μg/ml his-tagged angiocidin or his-tagged GST. […] Viability was measured by the ALAMAR BLUE™ assay. […]
The endothelial cells (BAEC) were incubated overnight 37 μg/ml of the angiocidin, fragments, and GST. Viability was measured using the ALAMAR BLUE™ assay.

Sequence of TSP-1 (P07996 19-1170): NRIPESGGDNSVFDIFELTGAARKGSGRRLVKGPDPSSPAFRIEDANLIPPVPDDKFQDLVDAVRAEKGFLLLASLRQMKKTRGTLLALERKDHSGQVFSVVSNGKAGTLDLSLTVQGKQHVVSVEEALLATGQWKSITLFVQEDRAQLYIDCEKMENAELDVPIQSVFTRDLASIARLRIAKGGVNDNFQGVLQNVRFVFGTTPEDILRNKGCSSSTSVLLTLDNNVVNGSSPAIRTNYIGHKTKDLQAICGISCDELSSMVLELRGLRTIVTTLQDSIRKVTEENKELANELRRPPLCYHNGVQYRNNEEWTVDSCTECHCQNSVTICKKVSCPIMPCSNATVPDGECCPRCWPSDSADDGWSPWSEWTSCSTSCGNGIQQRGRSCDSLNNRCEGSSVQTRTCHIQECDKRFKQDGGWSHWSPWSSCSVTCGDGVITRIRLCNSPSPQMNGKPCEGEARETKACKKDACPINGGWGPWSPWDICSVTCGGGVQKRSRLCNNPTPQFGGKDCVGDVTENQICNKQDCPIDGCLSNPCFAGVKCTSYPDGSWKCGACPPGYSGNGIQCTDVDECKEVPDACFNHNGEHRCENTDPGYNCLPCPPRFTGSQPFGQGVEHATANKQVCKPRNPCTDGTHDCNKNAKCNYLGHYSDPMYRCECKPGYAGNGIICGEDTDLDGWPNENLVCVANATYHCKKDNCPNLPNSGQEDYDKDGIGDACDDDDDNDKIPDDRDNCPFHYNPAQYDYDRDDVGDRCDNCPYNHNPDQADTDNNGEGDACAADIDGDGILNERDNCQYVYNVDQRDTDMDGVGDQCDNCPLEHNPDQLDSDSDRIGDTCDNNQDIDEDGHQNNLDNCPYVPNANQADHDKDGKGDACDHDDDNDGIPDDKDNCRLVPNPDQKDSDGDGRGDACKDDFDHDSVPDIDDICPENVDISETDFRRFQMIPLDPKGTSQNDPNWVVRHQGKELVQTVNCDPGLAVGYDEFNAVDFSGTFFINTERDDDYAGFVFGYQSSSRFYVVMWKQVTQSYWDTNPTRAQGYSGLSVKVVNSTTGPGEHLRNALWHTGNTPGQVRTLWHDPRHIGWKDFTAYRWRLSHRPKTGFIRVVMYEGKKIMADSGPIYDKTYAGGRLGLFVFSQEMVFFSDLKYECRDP

B1: amino terminal fragment Met1-Lys132: amino terminal fragment Met1-Lys132 of angiocidin (SEQ ID NO: 24) (protein, listed as Homo sapiens)
chain: MVLESTMVCVDNSEYMRNGDFLPTRLQAQQDAVNIVCHSKTRSNPENNVGLITLANDCEVLTTLTPDTGRILSKLHTVQPKGKITFCTGIRVAHLALKHRQGKNHKMRIIAFVGSPVEDNEKDLVKLAKRLK
binding to TSP-1 derivatized cuvette (TSP-1): show very similar binding at the nano molar range
anti-endothelial activity compared to angiocidin ([1]; 37 μg/ml, overnight): has the same anti-endothelial activity as the full length angiocidin
cell viability, angiocidin and fragments ([1]; Example 27, FIG. 34): inhibited cell viability
